B1: HDV Ribozyme (parent)
chain: GGCCGGCAUGGUCCCAGCCUCCUCGCUGGCGCCGGCUGGGCAACAUUCCGAGGGGACCGUCCCCUCGGUAAUGGCGAAUGGGACCCA

Variants of: B1
Assay: self-cleavage, relative activity (ratio to wild type); higher = more cleavage; co-transcriptional

Variant | self-cleavage
GGCCGGCAUGCUCCCAGCCUCCUCGCUGGCGCCGGCUGGGCAACAUUCCGAGGGGACCUUCCCCUCGGUAAUGGCGAAUGGGACCCA [G11C G59U] | 0.35
GGCCGGCAUGCUCCCAGCCUCCUCGCUGGCUCCGGCUGGGCAACAUUCCGAGGGGACCGUCCCCUCGGUAAUGGCGAAUGGGACCCA [G11C G31U] | 0.0482
GGCCGGCAUGCUCCCAGCCUCCUCGCUGGCCCCGGCUGGGCAACAUUCCGAGGGGACCGUCCCCUCGGUAAUGGCGAAUGGGACCCA [G11C G31C] | 0.0791
GGCCGGCAUGCUCCCAGCCUCCUCGCUGGCGCCGGCUGGGCAACAUUCCGAGGGGACCGUCCCCUCGGUAAUGGCGAAAGGGACCCA [G11C U79A] | 0.0723
GGCCGGCAUGCUCCCAGCCUCCUCGCUGGCGCCGGCUGGGCAACAUUCCGAGGGGACCGUCCCCUCGGUAAUGGCGAAGGGGACCCA [G11C U79G] | 0.0875
GGCCGGCAUGCUCCCAGCCUCCUCGCCGGCGCCGGCUGGGCAACAUUCCGAGGGGACCGUCCCCUCGGUAAUGGCGAAUGGGACCCA [G11C U27C] | 0.196
GGCCGGCAUGCUCCCAGCCUCCUCGCAGGCGCCGGCUGGGCAACAUUCCGAGGGGACCGUCCCCUCGGUAAUGGCGAAUGGGACCCA [G11C U27A] | 0.646
GGCCGGCAUGUUCCCAGCCUCCUCGCUGGCGCCGGCUGGGCAACAUUCCGGGGGGACCGUCCCCUCGGUAAUGGCGAAUGGGACCCA [G11U A51G] | 0.415
GGCCGGCAUGCUCCCAGCCUCCUCGCUGGCGCCGGCUGGGCAACAUGCCGAGGGGACCGUCCCCUCGGUAAUGGCGAAUGGGACCCA [G11C U47G] | 0.383
GGCCGGCAUGCUCCCAGCCUCCUCGCUGGCGCCGGCUGGGCAACAUCCCGAGGGGACCGUCCCCUCGGUAAUGGCGAAUGGGACCCA [G11C U47C] | 0.453
GGCCGGCAUGUUCCCAGCCUCCUCGCUGGCGCCGGCUGGGCAACCUUCCGAGGGGACCGUCCCCUCGGUAAUGGCGAAUGGGACCCA [G11U A45C] | 0.0841
GGCCGGCAUGUUCCCAGCCUCCUCGCUGGCGCCGGCUGGGCAACGUUCCGAGGGGACCGUCCCCUCGGUAAUGGCGAAUGGGACCCA [G11U A45G] | 0.587
GGCCGGCAUGCUCCCAGCCUCCACGCUGGCGCCGGCUGGGCAACAUUCCGAGGGGACCGUCCCCUCGGUAAUGGCGAAUGGGACCCA [G11C U23A] | 0.465
GGCCGGCAUGUUCCCAGCCUCCUCGCUGGCGCCGGCUGGGCAACAUUCCGAGGGGACCGUCCCCUCGGUAAUGGCGAAUGGGACCCA [G11U] | 0.366
GGCCGGCAUGCUCCCAGCCUCCUCGCUGGCGCCGCCUGGGCAACAUUCCGAGGGGACCGUCCCCUCGGUAAUGGCGAAUGGGACCCA [G11C G35C] | 0.151
GGCCGGCAUGCUCCCAGCCUCCUCGCUGGCGCCGGCUGGGCAACAUUCCGAGGGGACCGUCCCCUCGGUAAUGGCGAAUGAGACCCA [G11C G81A] | 0

Variant | self-cleavage
GGCCGGCAUGCUCCCAGCCUCCUCGCUGGCGCCGGCUGGGCAACAUUCCGAUGGGACCGUCCCCUCGGUAAUGGCGAAUGGGACCCA [G11C G52U] | 0.228
GGCCGGCAUGCUCCCAGCCUCCUCGCUGGCGCCGGCUGGGCAACAUUCCGAAGGGACCGUCCCCUCGGUAAUGGCGAAUGGGACCCA [G11C G52A] | 0.232
GGCCGGCAUGCUCCCAGCCUCCUCGCUGGCGCCGGCUGGGCAACAUUCCGAGGGGACCGUCCCCUCGGUAAUGGCGAAUAGGACCCA [G11C G80A] | 0.136
GGCCGGCAUGCUCCCAGCCUCCUCGCUGGCGCCGGCUGGGCAACAUUCCGAGGGGACCGUCCCCUCGCUAAUGGCGAAUGGGACCCA [G11C G68C] | 0.0831
GGCCGGCAUGCUCCCAGCCUCCUCGCUGGCGCCGGCUGGGCAACAUUCCGAGGGGACCGUCCCCUCGUUAAUGGCGAAUGGGACCCA [G11C G68U] | 0.291
GGCCGGCAUGCUCCCAGCCUCCUCGCUGGCGCCUGCUGGGCAACAUUCCGAGGGGACCGUCCCCUCGGUAAUGGCGAAUGGGACCCA [G11C G34U] | 0.0302
GGCCGGCAUGCUCCCAGCCUCCUCGCUGGCGCCGGCUGCGCAACAUUCCGAGGGGACCGUCCCCUCGGUAAUGGCGAAUGGGACCCA [G11C G39C] | 0.0489
GGCCGGCAUGCUCCCAGCCUCCUCGCUGGCGCCGGCUGAGCAACAUUCCGAGGGGACCGUCCCCUCGGUAAUGGCGAAUGGGACCCA [G11C G39A] | 0.264
GGCCGGCAUGUUCCCAGCCUCCUCGCUGGCGCCGGCUGGGCAACAUUCCGAGGGGACCGUCCCCUCGGUAGUGGCGAAUGGGACCCA [G11U A71G] | 0.302
GGCCGGCAUGCUCCCAGCCUCCUCGCUGGCGCCGGCUGGGCAACAUUCCGAGGGGACCGUCCCCUCGGUAAAGGCGAAUGGGACCCA [G11C U72A] | 0.0875
GGCCGGCAUGCUCCCAGCCUCCUCGCUGGCGCCGGCUGGGCAACAUUCCGAGGGGACCGUCCCCUCGGUAAUGGCUAAUGGGACCCA [G11C G76U] | 0.604
GGCCGGCAUGCUCCCAGCCUCCUCGCUGGCGCCGGCUGGGCAACAUUCCGAGGGGACCGUCCCCUCGGUAAUGGCAAAUGGGACCCA [G11C G76A] | 0.312
GGCCGGCAUGCUCCCAGCCUCCUCGCUGGCGCCGGCUGGGCAACAUUCCGAGGGGACCGUCCCCUCGGUAAUGGCCAAUGGGACCCA [G11C G76C] | 0.628
GGCCGGCAUGUUCCCAGCCUCCUCGCUGGCGCCGGCUGGGCAGCAUUCCGAGGGGACCGUCCCCUCGGUAAUGGCGAAUGGGACCCA [G11U A43G] | 0.0339
GGCCGGCAUGUUCCCAGCCUCCUCGCUGGCGCCGGCUGGGCACCAUUCCGAGGGGACCGUCCCCUCGGUAAUGGCGAAUGGGACCCA [G11U A43C] | 0.0594
GGCCGGCAUGUUCCCCGCCUCCUCGCUGGCGCCGGCUGGGCAACAUUCCGAGGGGACCGUCCCCUCGGUAAUGGCGAAUGGGACCCA [G11U A16C] | 0.38

From the RNAGym collection of RNA variant scans (doi:10.7554/elife.80360)
